This experiment deals with Fn14-Fc fusion protein (murine Fn14 extracellular domain fused to the hinge and Fc of mouse IgG1, with myc and His tags) (murine). Kind of experiment: ELISA, plate coated with Fn14-Fc, serial dilutions of FLAG-tagged TWEAK.

The source of these data is US7939490.

Fn14-Fc fusion protein (murine Fn14 extracellular domain fused to the hinge and Fc of mouse IgG1, with myc and His tags) (murine), sequence (chain, as listed by the source): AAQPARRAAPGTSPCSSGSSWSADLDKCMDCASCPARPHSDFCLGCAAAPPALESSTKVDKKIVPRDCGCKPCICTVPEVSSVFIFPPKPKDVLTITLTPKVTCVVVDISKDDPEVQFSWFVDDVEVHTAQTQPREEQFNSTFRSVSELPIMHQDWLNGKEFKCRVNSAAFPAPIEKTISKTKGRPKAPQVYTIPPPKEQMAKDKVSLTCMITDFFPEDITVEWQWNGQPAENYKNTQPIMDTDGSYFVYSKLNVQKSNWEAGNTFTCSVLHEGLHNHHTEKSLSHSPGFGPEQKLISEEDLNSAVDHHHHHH

In the case of FLAG epitope-tagged TWEAK (ligand), the Kd came to 1.1 nM.
